What all share (experiment): EMSA
What all share (conditions): tags: MBP fusion
(Mobility shift assays separate free from complexed probe on a gel.)

The target in one data set is T1, ZFP SBS#270 (synthetic).
T1 chain: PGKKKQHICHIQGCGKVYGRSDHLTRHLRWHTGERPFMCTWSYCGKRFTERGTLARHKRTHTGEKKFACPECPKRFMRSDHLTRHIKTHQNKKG
The protocol: (§1) Affinity is measured by titrating purified protein against a fixed amount of labeled double-stranded oligonucleotide target. The target typically comprises the natural binding site sequence flanked by the 3 bp found in the natural sequence and additional, constant flanking sequences. The natural binding site is typically 9 bp for a three-finger protein and 2×9 bp +intervening bases for a six finger ZFP. […] For the assay the target is added at a concentration of 1 nM or lower (the actual concentration is kept at least 10-fold lower than the expected dissociation constant), purified ZFPs are added at various concentrations, and the reaction is allowed to equilibrate for at least 45 min. In addition the reaction mixture also contains 10 mM Tris (pH 7.5), 100 mM KCl, 1 mM MgCl2, 0.1 mM ZnCl2, 5 mM DTT, 10% glycerol, 0.02% BSA. (NB: in earlier assays poly d(IC) was also added at […].) The equilibrated reactions are loaded onto a 10% polyacrylamide gel, which has been pre-run for 45 min in Tris/glycine buffer, then bound and unbound labeled target is resolved by electrophoresis at 150V.

For another data set, the target named is T2, ZFP SBS#269 (synthetic).
T2 chain: T1 chain with E50D, G52S, T53S, A55T
How it is done: as §1

The target of the next data set is T3, ZFP SBS#207 (synthetic).
T3 chain: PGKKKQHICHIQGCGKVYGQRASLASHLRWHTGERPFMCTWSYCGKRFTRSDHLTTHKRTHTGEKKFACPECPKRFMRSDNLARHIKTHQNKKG
The protocol:
as §1

The target of a further data set is ZFP SBS#242 (synthetic, UniProt P08047). The protocol:
as §1

The target of the next data set is ZFP SBS#240 (synthetic). The protocol:
as §1

A further data set addresses ZFP SBS#247 (synthetic). The protocol:
as §1

The next data set has as its target ZFP SBS#246 (synthetic). How it is done: as §1
The target of another data set is T4, ZFP SBS#250 (synthetic).
T4 chain: T1 chain with H23E, E50R, R51S, G52D, T53H, A55S, H81T, T83K, R84K
The protocol:
as §1

For the next data set, the target named is ZFP SBS#249 (synthetic). How it is done:
as §1

In the next data set the target is T5, ZFP SBS#205 (synthetic).
T5 chain: T3 chain with R21S, S23N, S26R, R50Q, D52A, H53T, T55A, T56R, A83S
The protocol:
as §1

For the next data set, the target named is ZFP SBS#233 (synthetic). The protocol: as §1
The target of a further data set is ZFP SBS#232 (synthetic). The protocol:
as §1

The target of another data set is ZFP SBS#289 (synthetic). The protocol:
as §1

The target of another data set is ZFP SBS#217 (synthetic). The protocol: as §1
For the next data set, the target named is T6, ZFP SBS#272 (synthetic).
T6 chain: T3 chain with Q20D, A22S, A25T, S26R, T55S, T56R, R78Q, D80G, N81S, A83T
How it is done:
as §1

A further data set has as its target T7, ZFP SBS#238 (synthetic, UniProt P08047).
T7 chain: T3 chain with Q20E, A22G, S23T, S26R, H53N, T55Q, T56R, N81H, A83S
The protocol: as §1

In the next data set the target is T8, ZFP SBS#237 (synthetic, UniProt P08047).
T8 chain: T3 chain with Q20E, A22G, S23T, S26R, H53N, T55A, T56R, N81H, A83S
The protocol:
as §1

The target in another data set is T9, ZFP SBS#243 (synthetic).
T9 chain: T1 chain with R20Q, D22S, H23D, T25R, E50D, G52S, T53H, H81A, T83A
The protocol:
as §1

In another data set the target is ZFP SBS#211 (synthetic). How it is done:
as §1

A further data set concerns the target T10, ZFP SBS#210 (synthetic).
T10 chain: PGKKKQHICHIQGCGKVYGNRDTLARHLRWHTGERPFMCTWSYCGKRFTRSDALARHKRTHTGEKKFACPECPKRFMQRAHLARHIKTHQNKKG
How it is done: as §1

The target of another data set is ZFP SBS#209 (synthetic). How it is done: as §1
Another data set deals with T11, ZFP SBS#212 (synthetic).
T11 chain: T10 chain with R56S
How it is done: as §1

The next data set deals with T12, ZFP SBS#235 (synthetic).
T12 chain: T10 chain with N20R, R21S, T23A, A25T, A53N, A80G, H81A
The protocol:
as §1

The next data set concerns the target T13, ZFP SBS#283 (synthetic).
T13 chain: T1 chain with H23A, E50Q, R51S, T53N, A55T, R78Q, D80G, H81S
How it is done: as §1

For another data set, the target named is T14, ZFP SBS#236 (synthetic, UniProt P08047).
T14 chain: T1 chain with T25A, E50R, R51S, G52D, T53N, T83S
The protocol:
as §1

In another data set the target is ZFP SBS#245 (synthetic). How it is done: as §1
For another data set, the target named is ZFP SBS#244 (synthetic). How it is done:
as §1

Another data set concerns the target T15, ZFP SBS#225 (synthetic, UniProt P08047).
T15 chain: T10 chain with N20D, D22S, T23A, A53N, Q78R, R79S, A80D, A83T, R84T
The protocol: as §1

Another data set addresses T16, ZFP SBS#223 (synthetic).
T16 chain: T10 chain with N20D, D22S, T23N, A25R, R26T, A53N, R79Q, A80S, H81N
How it is done:
as §1

The next data set concerns the target ZFP SBS#239 (synthetic). How it is done:
as §1

A further data set addresses T17, ZFP SBS#265 (synthetic).
T17 chain: T10 chain with N20E, D22G, R50Q, D52S, A53D, A55Q, Q78R, R79S, A80D, H81A
How it is done:
as §1

The next data set concerns the target T18, ZFP SBS#264 (synthetic).
T18 chain: T3 chain with Q20D, A22S, A25T, S26R, R50Q, D52S, H53D, T55Q, T56R, N81A
The protocol: as §1

Numbering of substitutions follows the chain as printed.

Sequence of ZFP SBS#249 (synthetic) (chain, as listed by the source): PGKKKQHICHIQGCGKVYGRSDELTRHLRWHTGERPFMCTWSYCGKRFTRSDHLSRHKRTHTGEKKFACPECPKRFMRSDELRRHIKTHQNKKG
Sequence of ZFP SBS#233 (synthetic) (chain, as listed by the source): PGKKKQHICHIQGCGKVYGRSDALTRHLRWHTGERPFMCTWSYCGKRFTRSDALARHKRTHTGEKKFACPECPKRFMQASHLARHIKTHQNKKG
Sequence of ZFP SBS#217 (synthetic) (chain, as listed by the source): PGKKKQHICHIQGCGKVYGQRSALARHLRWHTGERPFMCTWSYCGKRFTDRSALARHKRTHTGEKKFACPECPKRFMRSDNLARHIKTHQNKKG
Sequence of ZFP SBS#242 (P08047 other isoform, or with tags, fused parts or gaps): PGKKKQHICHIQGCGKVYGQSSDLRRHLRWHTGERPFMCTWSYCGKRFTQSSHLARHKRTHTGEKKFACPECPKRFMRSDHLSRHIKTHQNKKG
Sequence of ZFP SBS#209 (synthetic) (chain, as listed by the source): as the sequence (P08047 other isoform, or with tags, fused parts or gaps) above, with D23A, R25A, Q50R, S52D, H53A, R78Q, S79R, D80A, S83A counted along it
Sequence of ZFP SBS#211 (synthetic) (chain, as listed by the source): as the sequence (P08047 other isoform, or with tags, fused parts or gaps) above, with D23A, R25A, Q50R, S52D, H53A, R56S, R78Q, S79R, D80A, S83A counted along it
Sequence of ZFP SBS#246 (synthetic) (chain, as listed by the source): as the sequence (P08047 other isoform, or with tags, fused parts or gaps) above, with Q20R, S22D, D23N, R25A, Q50R, S52D, R78Q, D80G, H81N, S83T counted along it
Sequence of ZFP SBS#289 (synthetic) (chain, as listed by the source): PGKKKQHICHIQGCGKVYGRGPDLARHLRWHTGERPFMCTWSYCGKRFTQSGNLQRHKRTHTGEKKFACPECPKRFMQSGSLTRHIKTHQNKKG
Sequence of ZFP SBS#245 (synthetic) (chain, as listed by the source): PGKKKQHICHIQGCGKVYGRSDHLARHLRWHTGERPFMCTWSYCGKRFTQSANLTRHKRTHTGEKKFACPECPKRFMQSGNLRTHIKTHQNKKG
Sequence of ZFP SBS#240 (synthetic) (chain, as listed by the source): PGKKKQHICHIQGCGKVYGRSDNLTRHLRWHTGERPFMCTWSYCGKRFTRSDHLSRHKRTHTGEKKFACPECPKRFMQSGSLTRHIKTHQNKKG

B1: GGGGCCGGG (dsDNA)
DNA 1: GGGGCCGGG
DNA 2: CCCGGCCCC
With B1, the Kd was 52.5 nM in the data set with ZFP SBS#270 and 5 nM in the data set with ZFP SBS#269.

B2: GAGTGGTTA (dsDNA)
DNA 1: GAGTGGTTA
DNA 2: TAACCACTC
On to B2, for which the Kd with ZFP SBS#207 came out at 70 nM.

B3: GGGGGTGCT (dsDNA)
DNA 1: GGGGGTGCT
DNA 2: AGCACCCCC
The molecule B3 registered a Kd in the data set with ZFP SBS#242 of 1 nM.

B4: GCAGGGGAG (dsDNA)
DNA 1: GCAGGGGAG
DNA 2: CTCCCCTGC
B4: binding with ZFP SBS#240 was put at a Kd of 1 nM.

B5: GAAGGGGAG (dsDNA)
DNA 1: GAAGGGGAG
DNA 2: CTCCCCTTC
For B5, the Kd in the data set with ZFP SBS#247 and in the data set with ZFP SBS#246 was 2 nM in each case.

B6: GCGGGGGCG (dsDNA)
DNA 1: GCGGGGGCG
DNA 2: CGCCCCCGC
On to B6, for which the Kd with ZFP SBS#250 came to 70 nM; in the data set with ZFP SBS#249, 20 nM.

B7: GAGGTAGAA (dsDNA)
DNA 1: GAGGTAGAA
DNA 2: TTCTACCTC
In turn, B7 yielded a Kd with ZFP SBS#205 of 80 nM.

B8: GGTGTGGTG (dsDNA)
DNA 1: GGTGTGGTG
DNA 2: CACCACACC
Consider B8, for which the Kd with ZFP SBS#233 is 100 nM; with ZFP SBS#232, 50 nM.

B9: GCAGAAGCG (dsDNA)
DNA 1: GCAGAAGCG
DNA 2: CGCTTCTGC
In turn, B9 displayed a Kd with ZFP SBS#289 of 800 nM. That is a sub-micromolar value.

B10: GAGGTCGTA (dsDNA)
DNA 1: GAGGTCGTA
DNA 2: TACGACCTC
In the data set with ZFP SBS#217, B10 came in with a Kd of 40 nM.

B11: GCAGGGGCC (dsDNA)
DNA 1: GCAGGGGCC
DNA 2: GGCCCCTGC
With B11, the affinity in the data set with ZFP SBS#272, expressed as Kd, was 20 nM.

B12: GGGGAGGCC (dsDNA)
DNA 1: GGGGAGGCC
DNA 2: GGCCTCCCC
As for B12, the Kd with ZFP SBS#238 stood at 0.8 nM; in the data set with ZFP SBS#237, 0.3 nM.

B13: GTGGGCGCT (dsDNA)
DNA 1: GTGGGCGCT
DNA 2: AGCGCCCAC
In the case of B13, in the data set with ZFP SBS#243, the Kd came out at 75 nM.

B14: GGAGTGGTT (dsDNA)
DNA 1: GGAGTGGTT
DNA 2: AACCACTCC
Take B14: the Kd with ZFP SBS#211 was 140 nM; with ZFP SBS#210 it was 65 nM; with ZFP SBS#209, 35 nM; with ZFP SBS#212 it was 400 nM.

B15: GTAGAGGTG (dsDNA)
DNA 1: GTAGAGGTG
DNA 2: CACCTCTAC
B15 came in with a Kd with ZFP SBS#235 of 80 nM.

B16: GCAGAAGTG (dsDNA)
DNA 1: GCAGAAGTG
DNA 2: CACTTCTGC
As to B16, binding with ZFP SBS#283 was characterised by a dissociation constant (Kd) of 2 nM.

B17: GGGGAGGGG (dsDNA)
DNA 1: GGGGAGGGG
DNA 2: CCCCTCCCC
On to B17, for which, in the data set with ZFP SBS#236, binding was put at a Kd of 0.3 nM.

B18: TAAGAAGGG (dsDNA)
DNA 1: TAAGAAGGG
DNA 2: CCCTTCTTA
Consider B18, for which the Kd with ZFP SBS#245 came out at 235 nM; with ZFP SBS#244 it was 100 nM.

B19: TGGGAGGTC (dsDNA)
DNA 1: TGGGAGGTC
DNA 2: GACCTCCCA
Consider B19, for which the Kd with ZFP SBS#225 was 6 nM.

B20: GATGAGTAC (dsDNA)
DNA 1: GATGAGTAC
DNA 2: GTACTCATC
In the data set with ZFP SBS#223, B20 registered a Kd of 105 nM.

B21: GGCGGGGAG (dsDNA)
DNA 1: GGCGGGGAG
DNA 2: CTCCCCGCC
The molecule B21 gave a Kd with ZFP SBS#239 of 0.4 nM. This counts as sub-nanomolar.

B22: GTGGCTGCC (dsDNA)
DNA 1: GTGGCTGCC
DNA 2: GGCAGCCAC
As to B22, the dissociation constant (Kd) with ZFP SBS#265 was 600 nM; with ZFP SBS#264, 27 nM.

In general, Kd refers to the equilibrium constant for the complex coming apart. Higher therefore signals weaker binding.

The values are drawn from patent US20030068675, “Position dependent recognition of GNN nucleotide triplets by zinc fingers” (published 2003).
